Data reported in PMC11536930 (Nature structural & molecular biology, 2024).
Values belong to the binder of their own block, whether it stands above or below them.

How the values were obtained:
[1] = target: rat GluA2 flip(Q) isoform (unedited homotetrameric AMPA receptor), FLAG-tagged (rat, UniProt P19491-2 22-883); test: cryo-EM structure
cryo-EM structure = target: the molecule itself; test: cryo-EM structure

stoichiometry N [1]: 4 γ2(KKEE) per A2iQ tetramer
B1: rat TARPγ2 (stargazin) K52E/K53E (KKEE) mutant, 1D4-tagged (natural protein)
chain: MGLFDRGVQMLLTTVGAFAAFSLMTIAVGTDYWLYSRGVCKTKSVSENETSEENEEVMTHSGLWRTCCLEGNFKGLCKQIDHFPEDADYEADTAEYFLRAVRASSIFPILSVILLFMGGLCIAASEFYKTRHNIILSAGIFFVSAGLSNIIGIIVYISANAGDPSKSDSKKNSYSYGWSFYFGALSFIIAEMVGVLAVHMFIDRHKQLRATARATDYLQASAITRIPSYRYRYQRRSRSSSRSTEPSHSRDASPVGVKGFNTLPSTEISMYTLSRDPLKAATTPTATYNSDRDNSFLQVHNCIQKDSKDSLHANTANRRTTPV

B2: rat GluA2 flip(Q) isoform N619K mutant, FLAG-tagged (receptor, UniProt P19491-2 22-883, looked up)
chain: VSSNSIQIGGLFPRGADQEYSAFRVGMVQFSTSEFRLTPHIDNLEVANSFAVTNAFCSQFSRGVYAIFGFYDKKSVNTITSFCGTLHVSFITPSFPTDGTHPFVIQMRPDLKGALLSLIEYYQWDKFAYLYDSDRGLSTLQAVLDSAAEKKWQVTAINVGNINNDKKDETYRSLFQDLELKKERRVILDCERDKVNDIVDQVITIGKHVKGYHYIIANLGFTDGDLLKIQFGGANVSGFQIVDYDDSLVSKFIERWSTLEEKEYPGAHTATIKYTSALTYDAVQVMTEAFRNLRKQRIEISRRGNAGDCLANPAVPWGQGVEIERALKQVQVEGLSGNIKFDQNGKRINYTINIMELKTNGPRKIGYWSEVDKMVVTLTELPSGNDTSGLENKTVVVTTILESPYVMMKKNHEMLEGNERYEGYCVDLAAEIAKHCGFKYKLTIVGDGKYGARDADTKIWNGMVGELVYGKADIAIAPLTITLVREEVIDFSKPFMSLGISIMIKKPQKSKPGVFSFLDPLAYEIWMCIVFAYIGVSVVLFLVSRFSPYEWHTEEFEDGRETQSSESTNEFGIFNSLWFSLGAFMQQGCDISPRSLSGRIVGGVWWFFTLIIISSYTAKLAAFLTVERMVSPIESAEDLSKQTEIAYGTLDSGSTKEFFRRSKIAVFDKMWTYMRSAEPSVFVRTTAEGVARVRKSKGKYAYLLESTMNEYIEQRKPCDTMKVGGNLDSKGYGIATPKGSSLGTPVNLAVLKLSEQGVLDKLKNKWWYDKGECGAKDSGSKEKTSALSLSNVAGVFYILVGGLGLAMLVALIEFCYKSRAEAKRMKVAKNPQNINPSSSQNSQNFATYKEGYNVYGIESVKI
binding result (cryo-EM structure): binds
